# Reference: the DeepSol protein solubility set
# Experiment: soluble on expression in E. coli; label from the status in PepcDB or PDB records
row,Sequence,soluble on expression in E. coli
1,MSEAAQTLDGWYCLHDFRTIDWSAWKTLPNEEREAAISEFLALVDQWETTESEKQGSHAVYTIVGQKADILFMILRPTLDELHEIETALNKTKLADYLLPAYSYVSVVELSNYLASGSEDPYQIPEVRRRLYPILPKTNYICFYPMDKRRQGNDNWYMLSMEQRRELMRAHGMTGRKYAGKVTQIITGSVGLDDFEWGVTLFSDDALQFKKLVYEMRFDEVSARFGEFGSFFVGTRLPMENVSSFFHV,soluble
2,PTEFLYTSKIAAISWAATGGRQQRVYFQDLNGKIREAQRGGDNPWTGGSSQNVIGEAKLFSPLAAVTWKSAQGIQIRVYCVNKDNILSEFVYDGSKWITGQLGSVGVKVGSNSKLAALQWGGSESAPPNIRVYYQKSNGSGSSIHEYVWSGKWTAGASFGSTVPGTGIGATAIGPGRLRIYYQATDNKIREHCWDSNSWYVGGFSASASAGVSIAAISWGSTPNIRVYWQKGREELYEAAYGGSWNTPGQIKDASRPTPSLPDTFIAANSSGNIDISVFFQASGVSLQQWQWISGKGWSIGAVVPTGTPAGW,soluble
3,MAHHHHHHMASSALDEMKEQMLRRWKEDQKKIDDLRKKHGHEKLCDATIDAVYGGMRGITGLVYEPSLLDPAEGIRFRGLTILECQEMLPKAPGGKEPLPEAMFWLLMTGEVPTEEQVRGLNAELHRRADPEAIAAAQKAIAALPRNAHPMTAFSVGVLALQSYSKFAAAYAAGKSNKKTYWEYALEDSLDMLARTPAVVAMICNRETKGQVELAAPSNSDLDWAANFAKMMGYQDEEFWECMRLYLSVHADHEGGNVSAHTTTLVASALSDPYLAFSAGLNGLAGPLHGLANQEVLNYLLSMQERVKADGVNMHDEAALEKALSNYTWELLNSGQVVPGYGHAVLRKVDPRYTCLRNFCLRHKFDDDLFKLVNTIYLIMPGILKEHGKTKNPYPNVDAHSGVLLQHYGMTNQNCYPVLFGLSRQMGVLAGVVWDRLQGRPLERPKSITTEMLAKKYLCNSL,not soluble
4,MSLAQYPVIGIDDDEFATAKKLITKQEVRAVTLSKLRLQDDLVMWDIGAGSASVSIEASNLMPNGRIFALERNPQYLGFIRDNLKKFVARNVTLVEAFAPEGLDDLPDPDRVFIGGSGGMLEEIIDAVDRRLKSEGVIVLNAVTLDTLTKAVEFLEDHGYMVEVACVNVAKTKGLTEYKMFESHNPVYIITAWKSDEGHHHHHH,soluble
5,MRPEELTKRFNEFSLWMTEEGVEQMSSYRNTNWEALKTELGKLPTLRHSCKNHVPQLVKEFCLEKRRYGVNPMYVHFLFCYYKKNIEDTRGRLEDDKETLEEIQRTHDELNVKFEELNKVKTFIKKQKESKGNVYLPNEYTEKHRLQNTIDNLKDKIQILVSTRNEQLWDFDNIPDGFQPMLELHHLKKDQVVYFVEKYLQRYTLGNKHKEIQLIVGKGSHSIDNDSAIQRKIRRNYAENVRSHPKNYGILLLKVP,not soluble
6,MGSDKIHHHHHHMPAAATLADWKAASVPDFLAERSRQELARLGNPGWWGPPDLEALAELMQLAAAEGWRILPAGRGTRLDWGGLGHPVDAVISTAACDRLIEHAAADLTVTVEAGMTLGQLQTILAETGQWLPFDPIAGESSSLGALVSTGMSGSLRHRYGSLRDFLIGITFLRHDGQWAKGGGRVVKNVAGYDMMKLLHGAWGSLGLIGKLTFRTYPLPNAWGTIACQGDREAILQLRSQLVRSDLTPVAFDLLSPAAAAELELRSQWTVLLRFGSVAASVQEQQQVVELQATRLGLAAMTVAEPVWGQLNQSFEPRSRSATLIKFALLPSQLPCLLAELEAIAPTALGRVHAASGAGWLVWPEAEPTVETLLRLRRHCEVAEGFLSVLAASVSLKQQLDIWGYPGQGLAVMRAIKRQFDPQSRLAPGRFLAGLEE,not soluble
7,MSLKIAVLDDYQDAVRKLDCFSLLQDHEVKVFNNTVKGVGQLAARVADVEAIVLIRERTRVTRQLLDRLPKLKIISQTGRVSRDAGGHIDLEACTDKGVVVLEGKGSPVAPAELTWALVMAAQRRIPQYVASLKHGAWQQSGLKSTTMPPNFGIGRVLKGQTLGIFGYGKIGQLVAGYGRAFGMNVLVWGRENSKERARADGFAVAESKDALFEQSDVLSVHLRLNDETRGIVTVADLTRMKPTALFVNTSRAELVEENGMVTALNRGRPGMAAIDVFETEPILQGHTLLRMENCICTPHIGYVERESYEMYFGIAFQNILDILQGNVDSVANPTALAPALIRAEGHHHHHH,soluble
8,VHFAPTITFLESPTSDHHWCIPFTVKGNPKPALQWFYNGAILNESKYICTKIHVTNHTEYHGCLQLDNPTHMNNGDYTLIAKNEYGKDEKQISAHFMGWPGID,soluble
9,MRRVNILCSFALLFASHTSLAVTYPLPPEGSRLVGQSFTVTVPDHNTQPLETFAAQYGQGLSNMLEANPGADVFLPKSGSQLTIPQQLILPDTVRKGIVVNVAEMRLYYYPPDSNTVEVFPIGIGQAGRETPRNWVTTVERKQEAPTWTPTPNTRREYAKRGESLPAFVPAGPDNPMGLYAIYIGRLYAIHGTNANFGIGLRVSQGCIRLRNDDIKYLFDNVPVGTRVQIIDQPVKYTTEPDGSNWLEVHEPLSRNRAEYESDRKVPLPVTPSLRAFINGQEVDVNRANAALQRRSGMPVQISSGSRQMF,not soluble
10,MAHHHHHHMAEPNASGFRVIQILENYGVASSDIKKLMECGFYTVESAAYAPKKAILAVKGISENKAEKIMAECAKLVPMGFTSAVAYHEARKEIIMVTTGSREVDKLLGGGIETGSITELFGEFRTGKTQLCHTLCVTCQLPISQGGAEGMALYIDTEGTFRPERLVAVAERYKLDPEDVLANVACARAFNTDHQQQLLLQASAMMAENRFALIIVDSATALYRTDYSGRNELAARQMHLGKFLRSLHNLAEEYGVAVVVTNQVVANVDGSAQMFQADSKKPIGGHIMAHASTTRLSLRKGRGEQRIIKVYDSPCLAEAEAIFGIYDDGVGDARD,not soluble
11,GYIVDMSKWNGSPDWDTAKGQLDLVIARVQDGSNYVDPVYKDYVAAMKARNIPFGSYAFCRFVSVEDAKVEARDFWNRGDKDSLFWVADVEVTTMSDMRAGTQAFIDELYRLGAKKVGLYVGHHKYEEFGAAQIKCDFTWIPRYGAKPAYPCDLWQYDEYGQVPGIGKCDLNRLNGDKSLDWFTGKGEE,soluble
12,MAPSMIPFTIKLKTCLKMCIQRLRYAQEKQQAIAKQSRRQVAQLLLTNKEQKAHYRVETLIHDDIHIELLEILELYCELLLARVQVINDISTEEQLVKEHMDDGINEAIRSLIYAILFVDEVKELSQLKDLMAWKINVEFVNGVIADHIDVPEKIIKKCSPSVPKEELVDLYLKEIAKTYDVPYSKLENSLSS,soluble
13,MGHHHHHHSHMNQSRSRSDGGSEETLPQDHNHHENERRWQQERLHREEAYYQFINELNDEDYRLMRDHNLLGTPGEITSEELQQRLDGVKEQLASQPDLRDGTNYRDSEVPRESSHEDSLLEWLNTFRRTGNATRSGQNGNQTWRAALPDTS,not soluble
14,MANLPSSSGMFSRLLANVFNTTVASRCSASGRWWPQPDRRFTTKSDEKSSLEPKNTNETDVIITQQGVKLSKSNAAPVYYKPKSTGPGYELVEHKKGEMIANYTLFEAAINKSKVPWVNYDGLTSEERTIHMAHTRAINDRKLTYIDPKTGYSVFTISHHLQKGKCCGNGCRHCAYEMINASDEIRSQKVWNGAFYV,not soluble
15,GSHMVPEPDLPHDLRHLNTEPMEIFRNSVKIEEIMPNGDPLLAGQNTVDEVYVSRPS,soluble
16,MGSDKIHHHHHHMGFYEEMIRRIAADADPAACVEEIRIYANWVLVKTGKWSISTYFHGMPGFTDPAGMGTWMGDWIGRPARAAALELLVSREILKRSVGMACLKSLLPDPPATIAGGAIELVEPAACRIPTCFIGYFKTAAAWREKGYPVTIVELFPRPGDIHWNEADEVLEKAELVLMTGLTVVNETLEAVIRRTPSARMRIIMGPTVPASPVLFDYGIDMLGITQIDDVELMSNYALLGGGSIANAPAGALRSLNMARDLRALQERISALAR,not soluble
17,MSSGNRQAPMPPPKPRNLGRGQFYQQGGYLTPQDSDTDSGISADCDQGSPRAAAGFGGTGFNGTVNGQQVNSQRRIPDLPPGAYQNYRSHSSADYLTPNSARKIASYSTTPRRLPLQPQQQAPATATKAKYRVRFADEVDSGASTSSGTSSTHISPRNDPQEMLMNSAVGAPQITSTFQQPASYMQNSSDAQYKMNKIEYPPVSRTPPVACSSRTGTLQRTPNRRLPISSTPQPQPTYADQMQSLPEPPPYTIAMQRLRSVEQQPQESFRDAFIRKSVNDTLQRRYRQRSSSLPRGNKSYYEGIDIYDAQPPIRPLPQQQTSLMTVANQLPGSLDNLHINNLNMRRRKLPTAPLMGSSCQLHLDNSDELTAYRALQFQMMQDELQRQQPPPQSFERPTLLRRTNMPQQQSFNIPHITTTGPPPPAMGLSVPVQYDQGEYGTQSVRAQLVALDQRGFRRVLVEKMMPGPFGFYIATGVVAGQRAGIFISRVSLPSLSPMLTVGDEIIYVDEEYVKGRSLEYVQSLRIFEFQTELITEEPPHKQVIFM,not soluble
18,MPSTLQGTFHTYRIIRRLGQGAFGEVSLAGVLETGEVVALKRIHIRNTGGIPDVVVREIKALQSVSHPNVVALLDVFPKGQAIYLVQEYCTTDLAALLRRLPAPPPERIAKGLMLQLCRGLEALHAEGIMHRDVKPSNTLLSAASGTAKLADCGLARPLDGGERPAYTHAVATRWYRAPELLYGARAYGPAVDVWALGLVFAELLGLSPLVPGDNDIDQLGRVIATFGSMEPVWLGVRALPDWGKIAFPHCEPLPLGDLLPGAPAAALEFLAAFLRYDPAKRITAACAVRSTYLTATQPL,not soluble
19,NIVLTQSPKSMSVSVGERVTLSCKASENVDTYVFWFQQKPDQSPKLLLYGPSNRYTGVPDRFTGSGSTTDFTLTISSVQAEDLADYHCGQSYSYPYTFGGGTKLEIKRADAAPTVSIFPPSSEQLTSGGASVVCFLNNFYPKDINVKWKIDGSERQNGVLNSWTDQDSKDSTYSMSSTLTLTKDEYERHNSYTCEATHKTSTSPIVKSFNRNEC,soluble
20,MAHHHHHHMRPGRLDKTIVVPLPDIKGRYEILKMYSSKIVLSKDVDLHVLSRRTVGMTGADLNNILNIAAIKCSVEGKKAVDMNSIEQAFDRVVVGLQRKSPLNEEEKNITAYHEGGHTLVNFYTKGSDPVHKATIMPRGMSLGVTWKIPISDKYSQKIRDVQSEIDILMGGLVSEEIIFGKNNVTTGCSSDLQRATHIAQSLVMNYGVGINEENISMFLQDKKNISEEMKIKIDKSIQRILLDSYNRAKKVLNQHIDELHRVASALVEYETLTSDEIKLAMQGKHDQIRKNRELKQKEFNLKDSRIS,not soluble
21,MGSDKIHHHHHHMEIKILVDNTAKGKFLAQSGFSAIIKDEDSKILFDCGQNAHVFENNLKLMGEDDDFDAVIFSHGHYDHTDGFNYFIEKYGENLDVPIYIHKSAFVDRYHGERYIGIDENIKNFLKNYKNLKLIEDPFKISENLIISGTIPRTNFYERENFEMIENGQKVDDIIIDDMFVIVKDIIISGCTHSGLINCITHAKTLKEVNGIIGGFHMGTASENYINQVKNYLKTQNFRLVSPVHCTGFNATKELSDISGFKFGHVGSVFEI,not soluble
22,MAIYADNSYSIGNTPLVRLKHFGHNGNVVVKIEGRNPSYSVKCRIGANMVWQAEKDGTLTKGKEIVDATSGNTGIALAYVAAARGYKITLTMPETMSLERKRLLCGLGVNLVLTEGAKGMKGAIAKAEEIVASDPSRYVMLKQFENPANPQIHRETTGPEIWKDTDGKVDVVVAGVGTGGSITGISRAIKLDFGKQITSVAVEPVESPVISQTLAGEEVKPGPHKIQGIGAGFIPKNLDLSIIDRVETVDSDTALATARRLMAEEGILAGISSGAAVAAADRLAKLPEFADKLIVVILPSASERYLSTALFEGIEG,soluble
